Consider two molecules from PMC11670113 (Proceedings of the National Academy of Sciences of the …, 2024).

To fix the notation:
B2: AP-3 δ subunit (residues 1-617), as in the AP-3 core (domain or fragment, human, UniProt O14617 1-617, looked up)
chain: MALKMVKGSIDRMFDKNLQDLVRGIRNHKEDEAKYISQCIDEIKQELKQDNIAVKANAVCKLTYLQMLGYDISWAAFNIIEVMSASKFTFKRIGYLAASQSFHEGTDVIMLTTNQIRKDLSSPSQYDTGVALTGLSCFVTPDLARDLANDIMTLMSHTKPYIRKKAVLIMYKVFLKYPESLRPAFPRLKEKLEDPDPGVQSAAVNVICELARRNPKNYLSLAPLFFKLMTSSTNNWVLIKIIKLFGALTPLEPRLGKKLIEPLTNLIHSTSAMSLLYECVNTVIAVLISLSSGMPNHSASIQLCVQKLRILIEDSDQNLKYLGLLAMSKILKTHPKSVQSHKDLILQCLDDKDESIRLRALDLLYGMVSKKNLMEIVKKLMTHVDKAEGTTYRDELLTKIIDICSQSNYQYITNFEWYISILVELTRLEGTRHGHLIAAQMLDVAIRVKAIRKFAVSQMSALLDSAHLLASSTQRNGICEVLYAAAWICGEFSEHLQEPHHTLEAMLRPRVTTLPGHIQAVYVQNVVKLYASILQQKEQAGEAEGAQAVTQLMVDRLPQFVQSADLEVQERASCILQLVKHIQKLQAKDVPVAEEVSALFAGELNPVAPKAQKKVPV

For data set [1], the target named is B2. Briefly: cryo-EM structure.
Data set [2] deals with the molecule itself. As to the kind of experiment: cryo-EM structure.

B1: full-length, myristoylated Arf1-Q71L (enzyme)
chain: not shown
modifications: myristoylated
B1: the binding result in data set [1] is on record as “binds”.
With B2, the binding result in data set [2] is listed as “binds”.
